Measurements: article PMC2191820

B1: oligo A wt (dsDNA)
DNA 1: GATCCTGCCTTAGTCAACTTCCCAAGAACAGA
DNA 2: GATCTCTGTTCTTGGGAAGTTGACTAAGGCAG
B2: A mt13 (dsDNA)
DNA 1: GATCCTGCCCCTCGAGGTTCCCAAGAACAGA
DNA 2: GATCTCTGTTCTTGGGAACCTCGAGGGGCAG

Molecular target: T1, Ig/EBP-1 (C/EBP gamma) (mouse, UniProt P53568 1-150)
T1 sequence: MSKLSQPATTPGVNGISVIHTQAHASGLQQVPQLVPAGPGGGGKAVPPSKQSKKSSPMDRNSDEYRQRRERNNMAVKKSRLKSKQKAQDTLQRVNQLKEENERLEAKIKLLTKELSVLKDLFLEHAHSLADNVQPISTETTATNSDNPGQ
Experiment: EMSA

Binder	binding result
B1	binds
B2	no binding
